Data from the supplement of paper PMC6379048.

Key:
Test in all cases: EC50 of free RNA motif oligo competing protein binding to immobilised probe
CMTR1 = target: T1, CMTR1 (UniProt Q8N1G2)
T1 sequence: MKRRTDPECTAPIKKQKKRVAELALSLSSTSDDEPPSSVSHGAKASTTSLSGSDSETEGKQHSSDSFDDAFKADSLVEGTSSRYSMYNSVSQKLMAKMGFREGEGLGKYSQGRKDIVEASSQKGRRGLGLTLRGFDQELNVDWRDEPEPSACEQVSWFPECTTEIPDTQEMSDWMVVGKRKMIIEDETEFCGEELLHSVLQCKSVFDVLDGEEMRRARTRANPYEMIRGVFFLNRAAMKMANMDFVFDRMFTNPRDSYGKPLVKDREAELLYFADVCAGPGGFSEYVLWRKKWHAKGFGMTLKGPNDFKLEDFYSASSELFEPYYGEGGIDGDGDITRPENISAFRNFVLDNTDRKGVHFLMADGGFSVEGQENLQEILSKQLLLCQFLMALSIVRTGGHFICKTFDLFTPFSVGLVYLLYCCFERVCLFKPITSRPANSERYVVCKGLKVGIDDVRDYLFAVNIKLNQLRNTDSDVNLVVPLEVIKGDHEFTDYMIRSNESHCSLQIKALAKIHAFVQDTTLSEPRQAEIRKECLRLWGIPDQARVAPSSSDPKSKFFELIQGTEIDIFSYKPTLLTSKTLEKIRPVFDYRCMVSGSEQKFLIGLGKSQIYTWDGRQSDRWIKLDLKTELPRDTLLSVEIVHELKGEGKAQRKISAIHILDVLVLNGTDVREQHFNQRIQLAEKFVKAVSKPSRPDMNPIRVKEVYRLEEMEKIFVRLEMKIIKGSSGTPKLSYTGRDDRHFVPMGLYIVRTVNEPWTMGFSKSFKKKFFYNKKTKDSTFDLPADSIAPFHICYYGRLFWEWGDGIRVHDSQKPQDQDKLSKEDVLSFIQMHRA
Method in brief: (§1)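 HEK293-FT lysate (2.5 mg protein/well) was treated with free RNA oligos (0 nM to 30 μM) for 1 h at 4°C, then with the same oligos on NHS-Sepharose beads for 30 min at 4°C. Bound proteins were quantified by label-free LC-MS/MS relative to the control. EC50 came from a four-parameter log-logistic fit, and Kd is EC50 times a protein-dependent depletion factor.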

MSI1 = MSI1 (UniProt O43347)
Sequence of MSI1 (O43347 whole entry): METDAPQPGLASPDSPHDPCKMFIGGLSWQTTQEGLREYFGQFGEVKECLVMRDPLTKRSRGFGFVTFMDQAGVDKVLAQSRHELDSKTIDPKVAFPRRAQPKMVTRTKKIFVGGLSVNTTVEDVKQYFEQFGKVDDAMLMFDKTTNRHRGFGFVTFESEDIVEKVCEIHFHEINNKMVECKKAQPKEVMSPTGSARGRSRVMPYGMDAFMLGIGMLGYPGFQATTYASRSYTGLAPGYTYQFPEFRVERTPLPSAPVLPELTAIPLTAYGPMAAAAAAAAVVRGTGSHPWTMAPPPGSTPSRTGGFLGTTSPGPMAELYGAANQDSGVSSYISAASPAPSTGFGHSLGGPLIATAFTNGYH
Method in brief: as §1

RPS16 = RPS16 (UniProt P62249)
Method in brief: as §1

WDR33 = target: T2, WDR33 (UniProt Q9C0J8)
T2 sequence: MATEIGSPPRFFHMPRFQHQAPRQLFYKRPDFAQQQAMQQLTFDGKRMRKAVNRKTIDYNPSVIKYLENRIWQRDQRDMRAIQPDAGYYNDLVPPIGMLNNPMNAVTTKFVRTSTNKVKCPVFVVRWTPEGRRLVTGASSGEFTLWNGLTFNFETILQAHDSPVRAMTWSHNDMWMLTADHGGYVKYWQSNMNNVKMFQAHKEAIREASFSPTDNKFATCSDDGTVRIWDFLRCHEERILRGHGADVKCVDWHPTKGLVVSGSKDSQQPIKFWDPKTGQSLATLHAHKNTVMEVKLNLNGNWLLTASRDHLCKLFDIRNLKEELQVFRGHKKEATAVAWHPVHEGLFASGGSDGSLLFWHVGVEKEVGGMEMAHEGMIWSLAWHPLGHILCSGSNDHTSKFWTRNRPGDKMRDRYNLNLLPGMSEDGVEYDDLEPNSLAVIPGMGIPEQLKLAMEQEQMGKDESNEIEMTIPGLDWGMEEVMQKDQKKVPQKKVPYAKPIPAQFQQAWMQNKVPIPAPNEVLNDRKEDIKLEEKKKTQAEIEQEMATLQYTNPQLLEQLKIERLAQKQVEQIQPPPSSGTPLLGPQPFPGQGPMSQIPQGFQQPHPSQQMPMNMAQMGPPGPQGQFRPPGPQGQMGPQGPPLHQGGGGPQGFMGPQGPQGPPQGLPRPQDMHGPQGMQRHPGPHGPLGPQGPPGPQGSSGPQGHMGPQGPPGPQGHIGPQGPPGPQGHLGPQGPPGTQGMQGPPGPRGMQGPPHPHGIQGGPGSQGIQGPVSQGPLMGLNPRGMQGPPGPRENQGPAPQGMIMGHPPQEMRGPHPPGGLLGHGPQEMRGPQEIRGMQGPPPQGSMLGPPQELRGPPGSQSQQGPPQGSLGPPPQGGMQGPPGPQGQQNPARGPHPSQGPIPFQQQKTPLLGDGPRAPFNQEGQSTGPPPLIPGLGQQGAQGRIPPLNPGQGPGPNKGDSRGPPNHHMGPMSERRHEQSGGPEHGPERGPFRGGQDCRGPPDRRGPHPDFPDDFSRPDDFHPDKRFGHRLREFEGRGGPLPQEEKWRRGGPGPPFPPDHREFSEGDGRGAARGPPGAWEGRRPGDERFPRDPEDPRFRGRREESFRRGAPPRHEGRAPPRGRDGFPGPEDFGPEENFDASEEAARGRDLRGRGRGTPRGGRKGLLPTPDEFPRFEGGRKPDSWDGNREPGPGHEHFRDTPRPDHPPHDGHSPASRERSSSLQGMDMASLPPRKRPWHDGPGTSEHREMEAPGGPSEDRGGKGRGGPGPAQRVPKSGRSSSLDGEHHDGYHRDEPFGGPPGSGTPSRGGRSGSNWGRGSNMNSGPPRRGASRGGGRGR
Method in brief: as §1

LSM2 = target: T3, LSM2 (UniProt Q9Y333)
T3 sequence: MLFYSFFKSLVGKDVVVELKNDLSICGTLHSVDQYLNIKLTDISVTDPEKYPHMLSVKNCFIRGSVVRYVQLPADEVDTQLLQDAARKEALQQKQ
Method in brief: as §1

Sequence: AAUAAA
- EC50 (CMTR1): 298 nM
- EC50 (MSI1): 3500 nM
- EC50 (RPS16): 764 nM
- EC50 (WDR33): 64.6 nM
- EC50 (LSM2): 314 nM

Sequence: CUGUCCU
- EC50 (RPS16): 175 nM

Sequence: UAUUUAU
- EC50 (CMTR1): 1200 nM
- EC50 (MSI1): 487 nM
- EC50 (WDR33): 960 nM
- EC50 (LSM2): 781 nM
